Laboratory results taken from publication PMC8406295, “Highly Basic Clusters in the Herpes Simplex Virus 1 Nuclear Egress Complex Drive Membrane Budding by Inducing Lipid Ordering” (mBio, 2021).
* marks the point of attachment. MTSL = spin label, CC1(C)C=C(CS*)C(C)(C)N1[O]

T1: UL34^(174–194) peptide, unlabelled (herpes simplex virus 1 (HSV-1), UniProt P10218 174-194, N-terminally acetylated; C-terminally amidated)
T1 construct: also called UL34 MPR peptide; source: synthetic peptide, bought: Peptide 2.0
T1 peptide: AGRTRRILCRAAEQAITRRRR

T2: UL34^(174–194) peptide, spin-labelled at C182 (herpes simplex virus 1 (HSV-1), UniProt P10218 174-194, N-terminally acetylated; C-terminally amidated; MTSL spin label on the native cysteine C182)
T2 construct: also called UL34 MPR peptide; C182_(34); source: synthetic peptide, bought: Peptide 2.0
T2 peptide: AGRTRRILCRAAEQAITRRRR


What was measured:
[1] = molecular target: T1, UL34^(174–194) peptide, unlabelled; test: cross-linking; SM(PEG)6 at 50-fold molar excess, 30 min at room temperature in PBS, with 1 mM POPC/POPS/POPA 3:1:1 SUVs; 50 μM peptide, or 25 μM each in mixtures; 16% Tris-tricine SDS-PAGE, Coomassie; conditions: both partners purified
[2] = molecular target: T2, UL34^(174–194) peptide, spin-labelled …; test: DEER (double electron-electron resonance) spectroscopy; MTSL spin-labelled peptides, approximately 50 μM peptide or 1:1 peptide mixture with POPC/POPS/POPA 3:1:1 SUVs, 1:200 P/L ratio, incubated 10 min at 25°C, frozen, measured at 60 K; conditions: both partners purified

Row | Binder | binding result [1] | binding result [2]
1 | Ac-RRSRSSAAGGTLGVVRRASRK-NH2 (source: synthetic peptide, bought: Peptide 2.0) [UL31^(22–42) peptide] | binds | –
2 | Ac-RKSLPPHARKC(MTSL)-NH2 (SMILES CC(=O)N[C@@H](CCCNC(=N)N)C(=O)N[C@@H](CCCCN)C(=O)N[C@@H](CO)C(=O)N[C@@H](CC(C)C)C(=O)N1CCC[C@H]1C(=O)N1CCC[C@H]1C(=O)N[C@@H](Cc1c[nH]cn1)C(=O)N[C@@H](C)C(=O)N[C@@H](CCCNC(=N)N)C(=O)N[C@@H](CCCCN)C(=O)N[C@@H](CSSCC1=CC(C)(C)N([O])C1(C)C)C(N)=O, also called mini-MPR with C-terminal cysteine; C51_(31); source: synthetic peptide, bought: Peptide 2.0) [UL31^(41–C51) peptide, spin-labelled] | – | binds
3 | Ac-RKSLPPHARK-NH2 (also called UL31 mini-MPR peptide; source: synthetic peptide, bought: Peptide 2.0) [UL31^(41–50) peptide] | binds | –
4 | Ac-RRSRSSAAGGTLGVVRRASRKC(MTSL)-NH2 (also called C43_(31); source: synthetic peptide, bought: Peptide 2.0) [UL31^(22–C43) peptide, spin-labelled] | – | binds
5 | Ac-C(MTSL)RKSLPPHARK-NH2 (SMILES CC(=O)N[C@@H](CSSCC1=CC(C)(C)N([O])C1(C)C)C(=O)N[C@@H](CCCNC(=N)N)C(=O)N[C@@H](CCCCN)C(=O)N[C@@H](CO)C(=O)N[C@@H](CC(C)C)C(=O)N1CCC[C@H]1C(=O)N1CCC[C@H]1C(=O)N[C@@H](Cc1c[nH]cn1)C(=O)N[C@@H](C)C(=O)N[C@@H](CCCNC(=N)N)C(=O)N[C@@H](CCCCN)C(N)=O, also called mini-MPR with N-terminal cysteine; C40_(31); source: synthetic peptide, bought: Peptide 2.0) [UL31^(C40–50) peptide, spin-labelled] | – | binds
6 | Ac-C(MTSL)RRSRSSAAGGTLGVVRRASRK-NH2 (also called C21_(31); source: synthetic peptide, bought: Peptide 2.0) [UL31^(C21–42) peptide, spin-labelled] | – | binds
